# Test results as given in patent publication US10738094B2, “Peptides and combination of peptides for use in immunotherapy against ovarian cancer and other cancers” (immatics biotechnologies GmbH, priority 2015, dated 2020).
# Molecular target: HLA-A*02:01 (Homo sapiens, UniProt P04439, D140Y/D185E/D98H/E176V/E277Q/G131W/G231S/I119V/I121R/I166T/I218V/L300P/L318F/N151K/N90K/P208A/P217A/Q86G/Q94H/R138H/R169H/T345S)
# Assay: MHC binding assay (UV-ligand exchange, beta2m ELISA)
# Conditions: binding to HLA-A*02:01 ranged by peptide exchange yield (UV-ligand exchange, β2m ELISA)
# From the text: Candidate peptides for T cell based therapies according to the present invention were further tested for their MHC binding capacity (affinity). The individual peptide-MHC complexes were produced by UV-ligand exchange, where a UV-sensitive peptide is cleaved upon UV-irradiation, and exchanged with the peptide of interest as analyzed. Only peptide candidates that can effectively bind and stabilize the peptide-receptive MHC molecules prevent dissociation of the MHC complexes. To determine the yield of the exchange reaction, an ELISA was performed based on the detection of the light chain (β2m) of stabilized MHC complexes. The assay was performed as generally described in Rodenko et al. (Rodenko et al., 2006).
# 96 well MAXISorp plates (NUNC) were coated over night with 2 ug/ml streptavidin in PBS at room temperature, washed 4× and blocked for 1 h at 37° C. in 2% BSA containing blocking buffer. […] Peptide-MHC monomers of the UV-exchange reaction were diluted 100 fold in blocking buffer. Samples were incubated for 1 h at 37° C., washed four times, incubated with 2 ug/ml HRP conjugated anti-β2m for 1 h at 37° C., washed again and detected with TMB solution that is stopped with […]. Absorption was measured at 450 nm. Candidate peptides that show a high exchange yield (preferably higher than 50%, most preferred higher than 75%) are generally preferred for a generation and production of antibodies or fragments thereof, and/or T cell receptors or fragments thereof, as they show sufficient avidity to the MHC molecules and prevent dissociation of the MHC complexes.
row,Substance,Peptide exchange
1,262 (LLWGDLIWL; listed as Homo sapiens) [compound 262],“+++” (≥50 = +++)
2,158 (KLFDVDEDGYI; listed as Homo sapiens) [compound 158],“+++” (≥50 = +++)
3,24 (SLSDGLEEV; listed as Homo sapiens) [compound 24],“++” (≥20% = ++)
4,452 (ILLEHGADPNL; listed as Homo sapiens) [compound 452],“+++” (≥50 = +++)
5,162 (YQQAQVPSV; listed as Homo sapiens) [compound 162],“+++” (≥50 = +++)
6,606 (ALWETEVYI; listed as Homo sapiens) [compound 606],“+++” (≥50 = +++)
7,317 (SLAALVVHV; listed as Homo sapiens) [compound 317],“+++” (≥50 = +++)
8,590 (SLIEKLWQT; listed as Homo sapiens) [compound 590],“++” (≥20% = ++)
9,583 (ILANDGVLLAA; listed as Homo sapiens) [compound 583],“+++” (≥50 = +++)
10,337 (HLLSELEAAPYL; listed as Homo sapiens) [compound 337],“++++” (≥75% = ++++)
11,609 (ALWKQLLEL; listed as Homo sapiens) [compound 609],“+++” (≥50 = +++)
12,131 (FVPPVTVFPSL; listed as Homo sapiens) [compound 131],“++” (≥20% = ++)
13,215 (QLINHLHAV; listed as Homo sapiens) [compound 215],“+++” (≥50 = +++)
14,380 (TLIEDEIATI; listed as Homo sapiens) [compound 380],“++” (≥20% = ++)
15,279 (ALWGGTQPLL; listed as Homo sapiens) [compound 279],“++” (≥20% = ++)
16,458 (SLIDKLYNI; listed as Homo sapiens) [compound 458],“++” (≥20% = ++)
17,85 (KMSELRVTL; listed as Homo sapiens) [compound 85],“+++” (≥50 = +++)
18,354 (LILEGVDTV; listed as Homo sapiens) [compound 354],“++” (≥20% = ++)
19,393 (GLLDTQTSQVLTA; listed as Homo sapiens) [compound 393],“++” (≥20% = ++)
20,308 (SQYSGQLHEV; listed as Homo sapiens) [compound 308],“+++” (≥50 = +++)
21,350 (ALLDVTHSELTV; listed as Homo sapiens) [compound 350],“+++” (≥50 = +++)
22,517 (LLMPIPEGLTL; listed as Homo sapiens) [compound 517],“+++” (≥50 = +++)
23,198 (KTINKVPTV; listed as Homo sapiens) [compound 198],“+++” (≥50 = +++)
24,442 (GLLGGGGVLGV; listed as Homo sapiens) [compound 442],“+++” (≥50 = +++)

row,Substance,Peptide exchange
1,585 (ALWDLAADKQTL; listed as Homo sapiens) [compound 585],“++++” (≥75% = ++++)
2,200 (LLFGSVQEV; listed as Homo sapiens) [compound 200],“+++” (≥50 = +++)
3,82 (FLSSVTYNL; listed as Homo sapiens) [compound 82],“+++” (≥50 = +++)
4,564 (TVTNAVVTV; listed as Homo sapiens) [compound 564],“+++” (≥50 = +++)
5,327 (GLAPFTEGISFV; listed as Homo sapiens) [compound 327],“+++” (≥50 = +++)
6,587 (VMNDRLYAI; listed as Homo sapiens) [compound 587],“+++” (≥50 = +++)
7,64 (YAAPGGLIGV; listed as Homo sapiens) [compound 64],“++” (≥20% = ++)
8,592 (RLLSAAENFL; listed as Homo sapiens) [compound 592],“+++” (≥50 = +++)
9,187 (RQISIRGIVGV; listed as Homo sapiens) [compound 187],“+++” (≥50 = +++)
10,480 (ALLEDSCHYL; listed as Homo sapiens) [compound 480],“+++” (≥50 = +++)
11,359 (YLLPESVDL; listed as Homo sapiens) [compound 359],“+++” (≥50 = +++)
12,513 (SLWPSPEQL; listed as Homo sapiens) [compound 513],“++” (≥20% = ++)
13,383 (ALLELENSVTL; listed as Homo sapiens) [compound 383],“+++” (≥50 = +++)
14,99 (ALVSKGLATV; listed as Homo sapiens) [compound 99],“++” (≥20% = ++)
15,556 (FLTDLEDLTL; listed as Homo sapiens) [compound 556],“+++” (≥50 = +++)
16,154 (ALDDGTPAL; listed as Homo sapiens) [compound 154],“++” (≥20% = ++)
17,344 (YLQDQHLLLTV; listed as Homo sapiens) [compound 344],“+++” (≥50 = +++)
18,84 (VTFGEKLLGV; listed as Homo sapiens) [compound 84],“++” (≥20% = ++)
19,596 (ALLDQTKTLAESAL; listed as Homo sapiens) [compound 596],“+++” (≥50 = +++)
20,484 (SLIEKVTQL; listed as Homo sapiens) [compound 484],“+++” (≥50 = +++)
21,300 (ALLGQTFSL; listed as Homo sapiens) [compound 300],“+++” (≥50 = +++)
22,559 (VTVPPGPSL; listed as Homo sapiens) [compound 559],“++” (≥20% = ++)
23,428 (KLGHTDILVGV; listed as Homo sapiens) [compound 428],“++” (≥20% = ++)
24,265 (LLFGGTKTV; listed as Homo sapiens) [compound 265],“++” (≥20% = ++)

row,Substance,Peptide exchange
1,248 (FLFPNQYVDV; listed as Homo sapiens) [compound 248],“+++” (≥50 = +++)
2,320 (KMFEFVEPLL; listed as Homo sapiens) [compound 320],“++++” (≥75% = ++++)
3,151 (KILQQLVTL; listed as Homo sapiens) [compound 151],“+++” (≥50 = +++)
4,93 (LLQAIKLYL; listed as Homo sapiens) [compound 93],“++” (≥20% = ++)
5,372 (TMLLNIPLV; listed as Homo sapiens) [compound 372],“++” (≥20% = ++)
6,271 (LVYPLELYPA; listed as Homo sapiens) [compound 271],“+++” (≥50 = +++)
7,367 (SLQNHNHQL; listed as Homo sapiens) [compound 367],“+++” (≥50 = +++)
8,94 (YLIDIKTIAI; listed as Homo sapiens) [compound 94],“++” (≥20% = ++)
9,615 (VLPPDTDPA; listed as Homo sapiens) [compound 615],“++” (≥20% = ++)
10,257 (SIFSAFLSV; listed as Homo sapiens) [compound 257],“+++” (≥50 = +++)
11,565 (ALQETPTSV; listed as Homo sapiens) [compound 565],“++” (≥20% = ++)
12,109 (IILSILEQA; listed as Homo sapiens) [compound 109],“++++” (≥75% = ++++)
13,339 (GLWEIENNPTVKA; listed as Homo sapiens) [compound 339],“++++” (≥75% = ++++)
14,454 (KLPPPPPQA; listed as Homo sapiens) [compound 454],“+++” (≥50 = +++)
15,101 (ILVGGGALATV; listed as Homo sapiens) [compound 101],“+++” (≥50 = +++)
16,426 (RLADKSVLV; listed as Homo sapiens) [compound 426],“+++” (≥50 = +++)
17,233 (VLSETLYEL; listed as Homo sapiens) [compound 233],“++” (≥20% = ++)
18,27 (ILADIVISA; listed as Homo sapiens) [compound 27],“+++” (≥50 = +++)
19,545 (LLADLLHNV; listed as Homo sapiens) [compound 545],“+++” (≥50 = +++)
20,208 (KISPVTFSV; listed as Homo sapiens) [compound 208],“+++” (≥50 = +++)
21,524 (ALIENLTHQI; listed as Homo sapiens) [compound 524],“++” (≥20% = ++)
22,90 (TLLQIIETV; listed as Homo sapiens) [compound 90],“+++” (≥50 = +++)
23,96 (YIFTDNPAAV; listed as Homo sapiens) [compound 96],“+++” (≥50 = +++)
24,598 (FLFPHSVLV; listed as Homo sapiens) [compound 598],“+++” (≥50 = +++)
